# Laboratory results from patent US20020143164A1 (published 2002).
# B1: Flag-tagged full-length GRF4 (enzyme, not shown: small tags and cut ends)
# chain: MKPLAIPANHGVMGQQEKHSLPADFTKLHLTDSLHPQVTHVSSSHSGCSITSDSGSSSLSDIYQATESEAGDMDLSGLPETAVDSEDDDDEEDIERASDPLMSRDIVRDCLEKDPIDRTDDDIEQLLEFMHQLPAFANMTMSVRRELCAVMVFAVVERAGTIVLNDGEELDSWSVILNGSVEVTYPDGKAEILCMGNSFGVSPTMDKEYMKGVMRTKVDDCQFVCIAQQDYCRILNQVEKNMQKVEEEGEIVMVKEHRELDRTGTRKGHIVIKGTSERLTMHLVEEHSVVDPTFIEDFLLTYRTFLSSPMEVGKKLLEWFNDPSLRDKVTRVVLLWVNNHFNDFEGDPAMTRFLEEFENNLEREKMGGHLRLLNIACAAKAKRRLMTLTKPSREAPLPFILLGGSEKGFGIFVDSVDSGSKATEAGLKRGDQILEVNGQNFENIQLSKAMEILRNNTHLSITVKTNLFVFKELLTRLSEEKRNGAPHLPKIGDIKKASRYSIPDLAVDVEQVIGLEKVNKKSKANTVGGRNKLKKILDKTRISILPQKPYNDIGIGQSQDDSIVGLRQTKHIPTALPVSGTLSSSNPDLLQSHHRILDFSATPDLPDQVLRVFKADQQSRYIMISKDTTAKEVVIQAIREFAVTATPDQYSLCEVSVTPEGVIKQRRLPDQLSKLADRIQLSGRYYLKNNMETETLCSDEDAQELLRESQISLLQLSTVEVATQLSMRNFELFRNIEPTEYIDDLFKLRSKTSCANLKRFEEVINQETFWVASEILRETNQLKRMKIIKHFIKIALHCRECKNFNSMFAIISGLNLAPVARLRTTWEKLPNKYEKLFQDLQDLFDPSRNMAKYRNVLNSQNLQPPIIPLFPVIKKDLTFLHEGNDSKVDGLVNFEKLRMIAKEIRHVGRMASVNMDPALMFRTRKKKWRSLGSLSQGSTNATVLDVAQTGGHKKRVRRSSFLNAKKLYEDAQMARKVKQYLSNLELEMDEESLQTLSLQCEPATNTLPKNPGDKKPVKSETSPVAPRAGSQQKAQSLPQPQQQPPPAHKINQGLQVPAVSLYPSRKKVPVKDLPPFGINSPQALKKILSLSEEGSLERHKKQAEDTISNASSQLSSPPTSPQSSPRKGYTLAPSGTVDNFSDSGHSEISSRSSIVSNSSFDSVPVSLHDERRQRHSVSIVETNLGMGRMERRTMIEPDQYSLGSYAPMSEGRGLYATATVISSPSTEELSQDQGDRASLDAADSGRGSWTSCSSGSHDNIQTIQHQRSWETLPFGHTHFDYSGDPAGLWASSSHMDQIMFSDHSTKYNRQNQSRESLEQAQSRASWASSTGYWGEDSEGDTGTIKRRGGKDVSIEAESSSLTSVTTEETKPVPMPAHIAVASSTTKGLIARKEGRYREPPPTPPGYIGIPITDFPEGHSHPARKPPDYNVALQRSRMVARSSDTAGPSSVQQPHGHPTSSRPVNKPQWHKPNESDPRLAPYQSQGFSTEEDEDEQVSAV
# Molecular target: Endogenous Ras of HEK-293T cells (human (endogenous in HEK-293T cells))
# Assay: cell-based or functional assay
binder,measurement,value
B1,enhancement of Ras activation in cells after 8-Br-cAMP (GST-Raf1-RBD precipitation),3.9 fold
same,enhancement of Ras activation in cells after 8-Br-cAMP plus H-89 (GST-Raf1-RBD precipitation),3.5 fold
